Experimental data: CN110982824A

How the values were obtained:
PD-L1 [1] = molecular target: PD-L1 (UniProt Q9NZQ7); assay: ELISA, PD-L1 coated, BP at 200 μg/ml, reference PD-1 binding PD-L1
PD-L1 [2] = molecular target: PD-L1 (UniProt Q9NZQ7); assay: competition ELISA, PD-1 at 50 μg/ml, BP at 200 μg/ml

Sequence of UniProt Q9NZQ7 (Q9NZQ7 19-238 limits assumed): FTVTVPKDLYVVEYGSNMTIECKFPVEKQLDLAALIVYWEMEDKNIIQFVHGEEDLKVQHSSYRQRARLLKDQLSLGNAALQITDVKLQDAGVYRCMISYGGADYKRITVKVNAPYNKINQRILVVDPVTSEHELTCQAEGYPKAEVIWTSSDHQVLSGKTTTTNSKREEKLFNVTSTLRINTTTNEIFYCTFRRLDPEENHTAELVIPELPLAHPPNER

B1: 拮抗PD-1的抗体类似物BP蛋白 (VHH, not shown: small tags and cut ends)
VHH: DVQLQASGGGSVQAGGSLRLSCAASGYTIGTYAISWFRQAPGKEREGVAGIIPIFGKAHTYYADSVKGRFTISQDNAKNTVYLLMNSLEPEDTAIYYCAAKFHFVSGSPFGMDSWGQGTQVTVSS
**Q.** Which 结合强度 (relative to PD-1 binding PD-L1) (PD-L1 [1]) does the source give for B1 here?
**A.** 115%

**Q.** And the 抑制率 (inhibition of PD-1 binding to PD-L1) (PD-L1 [2])?
**A.** 25%
